Patent US20240344241A1, “PROTEINACEOUS MOLECULES AND USES THEREFOR” (THE UNIVERSITY OF QUEENSLAND, priority 2021, published 2024)
Bridge positions count the residues as written; N and C are the ends. Peptide text beside a SMILES is read from it.

Assays:
Human β-FXIIa [1] = target: T1, Human β-FXIIa (Homo sapiens, UniProt P00748); assay: FXIIa competitive inhibition assay, colorimetric substrate Ac-QRFR-pNA; type: biochemical
T1 construct: Human β-FXIIa was obtained from Molecular Innovations, together with human FXa, human FXIa, human α-thrombin, and human plasma kallikrein; purchased Molecular Innovations; host or cells: purified from human plasma
T1 sequence (P00748 373-615 limits assumed, other chains not shown): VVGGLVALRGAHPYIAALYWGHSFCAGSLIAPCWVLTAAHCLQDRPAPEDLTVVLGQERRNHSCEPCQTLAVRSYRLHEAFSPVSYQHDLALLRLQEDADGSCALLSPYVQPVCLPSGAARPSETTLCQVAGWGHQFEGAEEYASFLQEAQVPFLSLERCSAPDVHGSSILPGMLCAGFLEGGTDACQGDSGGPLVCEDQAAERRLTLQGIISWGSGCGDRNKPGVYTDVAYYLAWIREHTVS
Summary of the method: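 Competitive inhibition: serially diluted inhibitors were pre-incubated with enzyme at room temperature to equilibrium in 0.1 M Tris-HCl pH 8.0, 0.1 M NaCl, 10 mM CaCl2, 0.005% Triton X-100. Substrate hydrolysis was followed by pNA absorbance (405 nm) or MCA fluorescence (ex 360/em 460 nm); Morrison Ki by non-linear regression.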

Human trypsin = target: T2, Human trypsin (Homo sapiens, UniProt P07477); assay: Trypsin competitive inhibition assay; type: biochemical
T2 construct: purchased Sigma-Aldrich; host or cells: purified from human tissue
Protocol: (§1) The activity of acyclic and cyclic MCoFx1-5 and analogues thereof was assessed in competitive inhibition assays, as previously described in Swedberg et al. (2016) J Med Chem, 59: 7287-7292. Human β-FXIIa was obtained from Molecular Innovations, together with human FXa, human FXIa, human α-thrombin, and human plasma kallikrein. Human cationic trypsin and human plasmin were obtained from Sigma-Aldrich, and recombinant human matriptase was sourced from R&D Systems. Recombinant human urokinase (uPA) and recombinant human tissue plasminogen activator (tPA) were expressed in Expi293 cells, as previously described in Li et al. (2019) Chembiochem, 20: 46-50. FXIIa inhibition assays were performed in clear, low-binding 96-well plates using 250 μL (final volume) of assay buffer (0.1 M Tris-HCl pH 8.0, 0.1 M NaCl, 10 mM CaCl2 and 0.005% Triton X-100). Inhibitors were serially diluted and incubated with 10 nM FXIIa at room temperature to reach equilibrium. After adding 100 μM Ac-QRFR-pNA substrate (KM=162 μM), enzymatic activity was measured by monitoring release of the pNA moiety using a TECAN infinite M1000 Pro plate reader (A=405 nm, reading interval, 10 s; assay time course, 7 min). Assays were conducted in three times in duplicate. Substrate kinetic constants (Michaelis-Menten) and inhibition constants (Morrison K) were determined by non-linear regression using Prism 7 (GraphPad). Selectivity assays with off-target proteases were performed in a similar way, except that different concentrations of enzyme and substrate were used, as indicated in Table 16. For assays using a fluorescent substrate (peptide-4-methylcoumaryl-7-amide, MCA), black low-binding 96-well plates were used and activity was measured using a TECAN infinite M1000 pro plate reader (λex 360 nm, λem 460 nm, reading interval, 30 s; assay time course, 5-30 min).

Rec. human matriptase = target: T3, Rec. human matriptase (Homo sapiens, UniProt Q9Y5Y6); assay: Matriptase inhibition assay; type: biochemical
T3 construct: purchased R&D Systems
T3 sequence (Q9Y5Y6 615-855 limits assumed): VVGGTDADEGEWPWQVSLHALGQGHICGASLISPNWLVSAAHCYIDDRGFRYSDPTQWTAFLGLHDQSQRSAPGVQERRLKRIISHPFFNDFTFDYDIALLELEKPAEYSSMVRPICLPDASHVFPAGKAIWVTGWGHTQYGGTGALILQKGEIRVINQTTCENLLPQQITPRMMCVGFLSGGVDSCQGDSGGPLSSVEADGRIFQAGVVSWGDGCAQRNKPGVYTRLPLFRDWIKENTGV
Protocol: as §1

[2] = target: kallikrein-related peptidase 4 (KLK4) (Homo sapiens, UniProt Q9Y5K2); assay: KLK4 competitive inhibition assay; type: biochemical
Sequence of kallikrein-related peptidase 4 (KLK4) (Q9Y5K2 31-254): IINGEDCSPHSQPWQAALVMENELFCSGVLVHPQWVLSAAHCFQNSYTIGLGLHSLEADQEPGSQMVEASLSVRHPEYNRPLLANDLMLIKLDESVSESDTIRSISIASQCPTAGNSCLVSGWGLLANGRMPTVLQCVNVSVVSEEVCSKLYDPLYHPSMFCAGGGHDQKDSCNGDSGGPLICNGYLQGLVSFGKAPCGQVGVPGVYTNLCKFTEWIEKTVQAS
Protocol: The inhibitor variants were screened against FXIIa and three off-target proteases, trypsin, matriptase and kallikrein-related peptidase 4 (KLK4), in competitive inhibition assays using a single concentration of inhibitor that ranged from 1.25 nM (KLK4) to 25 nM (FXIIa).
The activity of acyclic and cyclic MCoFx1-5 and analogues thereof was assessed in competitive inhibition assays, as previously described in Swedberg et al. (2016) J Med Chem, 59: 7287-7292. Human β-FXIIa was obtained from Molecular Innovations, together with human FXa, human FXIa, human α-thrombin, and human plasma kallikrein. Human cationic trypsin and human plasmin were obtained from Sigma-Aldrich, and recombinant human matriptase was sourced from R&D Systems. […] After adding 100 μM Ac-QRFR-pNA substrate (KM=162 μM), enzymatic activity was measured by monitoring release of the pNA moiety using a TECAN infinite M1000 Pro plate reader (A=405 nm, reading interval, 10 s; assay time course, 7 min). […] Substrate kinetic constants (Michaelis-Menten) and inhibition constants (Morrison K) were determined by non-linear regression using Prism 7 (GraphPad). […] For assays using a fluorescent substrate (peptide-4-methylcoumaryl-7-amide, MCA), black low-binding 96-well plates were used and activity was measured using a TECAN infinite M1000 pro plate reader (λex 360 nm, λem 460 nm, reading interval, 30 s; assay time course, 5-30 min).

[3] = test system: clotting via the intrinsic pathway; assay: Activated partial thromboplastin time (aPTT) assay in human plasma; type: biochemical
Source text: (§2) Citrated, platelet-poor plasma samples from healthy adults were collected, prepared, and stored using previously established collection protocols, such as in Zdenek et al. (2019) Toxicol in Vitro, 58: 97-109.
(§3) Standard coagulation assays were used to determine the effect of the inhibitors on the clotting time of human plasma. Activated partial thromboplastin time (aPTT) uses a Kaolin reagent (clay) to activate the intrinsic/contact pathway of the coagulation cascade, whereas prothrombin time (PT) uses Neoplastine (lyophilized thromboplastin prepared from rabbit cerebral tissue) to activate the extrinsic/tissue-factor pathway of the coagulation cascade. A minor adjustment was made to both tests (addition of 25 μL inhibitor or buffer; refer to Table 17) to accommodate the addition of an inhibitor without changing the total volume (and therefore relative ratios of additives) of the assay. Concentrations of inhibitor are reported as the concentration at the point of incubation in the assay, i.e. not taking into account the addition of the start reagent (calcium for aPTT, or Neoplastine for PT).
(§4) Clotting time (seconds) of plasma was automatically measured using a STA-R Max® analyzer (Stago, Asnieres sur Seine, France). Measurements were conducted using a viscosity-based (mechanical) detection system, whereby opposing magnets oscillate a small metal spherical pellet inside the test cuvette (250 μL total volume) until a clot is formed. Dilution of the inhibitor in Owren-Koller (OK) buffer for dose-response curves was performed automatically by the machine. Reagents were kept at 15-19° C. in the machine during experimentation and otherwise stored at 4° C. All tests were performed in triplicate.

[4] = test system: clotting via the extrinsic pathway; assay: Prothrombin time (PT) assay in human plasma; type: biochemical; conditions: at 10 μM
Source text: as §2, §3, §4

Human β-FXIIa [5] = target: T1, Human β-FXIIa; assay: FXIIa competitive inhibition assay, fluorescent substrate Boc-QGR-MCA; type: biochemical
Source text: Cyclic [I7F]MCoFx1 (also referred to as cyclic MCoFx6) was synthesized using solid phase peptide synthesis ([[…]] [SEQ ID NO: 97]). For this inhibitor, Tyr33 was mutated back to serine as per the original mRNA display screen (FIG. 1). Cyclic MCoFx6 was screened using a competitive inhibition assay, with the substrate being changed from a colorimetric substrate (Ac-QRFR-pNA in the data of Tables 7 and 10) to a fluorescent substrate (Boc-QGR-MCA) to allow the assay to be run with a lower concentration of enzyme. The assay was performed as described for Examples 2 and 3, except that the FXIIa concentration was 0.5 nM and the substrate concentration was 50 μM (KM=187 μM).
The new variants were screened using competitive inhibition assays, with the substrate being changed from a colorimetric substrate (Ac-QRFR-pNA in the data of Tables 7 and 10) to a fluorescent substrate (Boc-QGR-MCA) to allow the assay to be run with a lower concentration of enzyme. Assays were performed as described for Examples 2 and 3, except that the FXIIa concentration was 0.5 nM and the substrate concentration was 50 μM (KM=187 μM). […] The effect of amino acid substitutions within loop 2 (Arg12, Arg13), loop 5 (Ala25, Arg27) or loop 6 (Asp34) on the activity of cyclic MCoFx7 against FXIIa was determined (refer to Table 14). […] Additionally, mutating Arg to Glu (reversing the side chain charge) only led to two-fold weaker activity. The adjacent residue Arg13 could also be mutated to Lys with no change in activity. Within loop 5, mutating Ala25 to Lys produced a slight gain in activity, whereas the Ala to Pro mutation led to a slight decrease in activity. Both mutations at Arg27 led to losses in activity in the order of two-fold (His) or 3.2-fold (Gly).
as §1

human whole blood = assay: Activated clotting time (ACT) in human whole blood; conditions: 10 μM, human whole blood
Protocol: (§5) The anticoagulant activity of cyclic MCoFx7 was determined in human whole blood using two assays: activated clotting time (ACT) and rotational thromboelastometry (ROTEM). In ACT assays, the clotting time (y-axis) was increased in a dose-dependent manner from the control (124 s), reaching 223 s with 20 μM MCoFx7. […] Anticoagulant activity was verified by thromboelastometry (TEM) that was measured after activation of the intrinsic pathway (INTEM) (refer to FIG. 16). […] By comparison, a single concentration of cyclic [A25P]MCoFx7 (10 μM) produced a clotting time of 500 s, similar to cyclic MCoFx7 at 10 μM (469 s).
(§6) Activated clotting time (ACT) was measured in fresh whole blood using celite tubes with the Hemochron 401 coagulation analyzer (Soma Technology, Bloomfield, CT, USA). Whole blood clot formation was recorded by ROTEM® Thromboelastometry (Haemoview Diagnostics, Brisbane, Australia) using INTEM (contact factor-initiated coagulation) and HEPTEM (contact factor-initiated coagulation with heparinase) activating reagents according to the manufacturer's instructions.

[6] = test system: human whole blood, intrinsic pathway (INTEM); assay: Rotational thromboelastometry INTEM in human whole blood; conditions: 10 μM
Protocol: as §5, §6

Compound	change in Ki for FXIIa compared to M (Human β-FXIIa [1])	Ki against trypsin (in words) (Human trypsin)	fold change in activity for trypsin compared to M (Human trypsin)	Ki against matriptase (in words) (Rec. human matriptase)	fold change in activity for matriptase compared to M (Rec. human matriptase)	fold change in activity for KLK4 compared to M [2]	EC1.5× (concentration required to extend the clotting time by 50%) [3]	EC2× (doubling the clotting time) [3]	clotting time compared to control, PT assay [4]	Ki (Human β-FXIIa [5])	ACT clotting time (human whole blood)	INTEM clotting time [6]
NH2-RVCPR[4-F-Phe]EKKCRRDSDCPGACICRGNGYCG-OH (RVCPRXEKKCRRDSDCPGACICRGNGYCG; 4-F-Phe non-natural residue; MOD_RES 6 4-fluoro-L-phenylalanine) [Peptide 1]	three-fold	in the micromolar range	7,350 fold	in the micromolar range	9,650 fold	> 100,000 fold	840 nM	2.9 µM	No effect on clotting time	–	–	–
CC[C@H](C)[C@@H]1NC(=O)CNC(=O)CNC(=O)[C@H](CC(=O)O)NC(=O)[C@H](CO)NC(=O)CNC(=O)[C@H](CO)NC(=O)CNC(=O)[C@@H]2CSSC[C@@H]3NC(=O)[C@H](CC(=O)O)NC(=O)[C@H](CO)NC(=O)[C@H](CC(=O)O)NC(=O)[C@H](CCCNC(=N)N)NC(=O)[C@H](CCCNC(=N)N)NC(=O)[C@@H]4CSSC[C@H](NC(=O)[C@H]([C@@H](C)CC)NC(=O)[C@H](CSSC[C@H](NC1=O)C(=O)N1CCC[C@H]1C(=O)N[C@@H](CCCNC(=N)N)C(=O)N[C@@H]([C@@H](C)CC)C(=O)NCC(=O)N[C@@H](CCCNC(=N)N)C(=O)N[C@@H](CC(C)C)C(=O)N4)NC(=O)[C@H](C)NC(=O)CNC(=O)[C@@H]1CCCN1C3=O)C(=O)N[C@@H](CCCNC(=N)N)C(=O)N1CCC[C@H]1C(=O)N[C@@H]([C@@H](C)O)C(=O)N[C@@H](CCCNC(=N)N)C(=O)N[C@@H](Cc1ccccc1)C(=O)N2 [Cyclic [A25P]MCoFx7] (cyclo(ACICRPTRFCGSGSDGGICPRIGRLCRRDSDCPG); disulfide 2-19, 4-26, 10-32)	–	–	–	–	–	–	–	–	–	0.093 ± 0.005 nM	186 s	500 s
